In publication PMC6353796, “Thermostable Branched-Chain Amino Acid Transaminases From the Archaea Geoglobus acetivorans and Archaeoglobus fulgidus: Biochemical and Structural Characterization” (Frontiers in Bioengineering and Biotechnology, 2019):

What was measured:
[1] = substrate: CC(=O)C(=O)O; experiment: steady-state kinetics of overall transamination, Michaelis-Menten fit; assay type: biochemical, Geoglobus acetivorans; conditions: 5 mM L-Leu co-substrate; extrapolated
Text: steady-state kinetics of overall transamination, Michaelis-Menten fit on GEO1900 | For GEO1900 the extrapolated Vmax and Km values for pyruvate and AKG were […]

[2] = substrate: O=C(O)CCC(=O)C(=O)O; experiment: steady-state kinetics, GluDH-coupled discontinuous assay; assay type: biochemical, Geoglobus acetivorans; conditions: 5 mM L-Leu co-substrate, 50 mM phosphate pH 8.0, 100 mM NaCl, 60 μM PLP, 65°C
Text: steady-state kinetics, GluDH-coupled discontinuous assay on GEO1900 | For GEO1900 the extrapolated Vmax and Km values for pyruvate and AKG were […]

[3] = substrate: CC[C@H](C)C(=O)C(=O)O; experiment: purified protein; conditions: 10 mM L-glutamate, 0.1 M Tris-HCl pH 8, 0.1 mM PLP, 70°C
[4] = substrate: CC(C)C(=O)C(=O)O; experiment: purified protein; conditions: 10 mM L-glutamate, 0.1 M Tris-HCl pH 8, 0.1 mM PLP, 70°C
[5] = substrate: CC(C)CC(=O)C(=O)O; experiment: purified protein; conditions: 10 mM L-glutamate, 0.1 M Tris-HCl pH 8, 0.1 mM PLP, 70°C

Row | Protein | Km [1] [µM] | Km [2] [µM] | Km [3] [µM] | Vmax [3] [µmol/min/mg] | kcat/Km [3] [M⁻¹ s⁻¹] | Km [4] [µM] | Vmax [4] [µmol/min/mg] | kcat/Km [4] [M⁻¹ s⁻¹] | Km [5] [µM] | Vmax [5] [µmol/min/mg] | kcat/Km [5] [M⁻¹ s⁻¹]
1 | GEO1900 (Geoglobus acetivorans) (protein, mainly homodimer in solution, hexamer in crystal; catalytic Lys152) MSELLVYMNGEFVPESQAKVSVFDHGFLYGDGVFEGIRAYNGKVFKLYEHIDRLYDCARVIDLKIPLSKEEFAEAILETLRRNNLRDAYIRPIVTRGAGDLGLDPRKCPSPNVIIITKPWGKLYGDLYEKGLKAITVAIRRNAIDSLPPNIKSLNYLNNILAKIEANAKGGDEAIFLDHNGYISEGSGDNIFIVKNGTITTPPTLNNLKGITRQVVIELINELEIPFREANIGLFDLYSADEIFVTGTAAEIAPVTYIDGRTVGNGKPGKVTKMLMEKFRERTENEGVEIYR | 10600 ± 1900 | 1900 ± 600 | – | – | – | – | – | – | – | – | –
2 | AF0933 (Archaeoglobus fulgidus DSM 4304) (protein) MLYVYMDGEFVPENEAKVSIFDHGFLYGDGVFEGIRAYNGRVFRLKEHIDRLYDSAKAIDLEIPITKEEFMEIILETLRKNNLRDAYIRPIVTRGIGDLGLDPRKCQNPSIIVITKPWGKLYGDLYEKGLTAITVAVRRNSFDALPPNIKSLNYLNNILAKIEANAKGGDEAIFLDRNGYVSEGSGDNIFVVKNGAITTPPTINNLRGITREAVIEIINRLGIPFKETNIGLYDLYTADEVFVTGTAAEIAPIVVIDGRKIGDGKPGEITRKLMEEFSKLTESEGVPIYE | – | – | 130 | 3.9 | 17700 | 420 | 6.3 | 8850 | 250 | 5.5 | 13000
